In the domain aggregation screens of Martell et al. (2025):

Test: soluble fraction after stress (log2 fold change); higher = more stays soluble; pooled small domains, quantitative proteomics
Conditions: stress: pH 4
Procedure, shortened: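 With high-throughput quantitative proteomics, pooled custom libraries of small protein domains were measured after pH 4 stress. Each domain's soluble amount after the stress gives a fold change taken as aggregation propensity. Higher log2 values mean more of the domain stayed soluble.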

First: HMASLASVAYETLRQALDNFQYVPGDRFSESEVGQQLGMSRTPVREALVRLQREGYISVLPKMGWVVNQ
Second: HMASMHDGVAARLRAMVFERELAPGEFIDERRLAQQWQISRTPLREALKVLAAEGLVELVPRRGARVV
The “soluble fraction (log2)” value of the first is lower: -0.953 for the first, -0.275 for the second.

Going from “HMASPKEALWRSLAEEPDTWWDNRERKSQPGANPRSPDFKHKESGEALWIESRDTPTWVLETL” to “HMASQEESVATYIQDYYRNPKTGESMVSDDMVEEFYKTHPEWEDQADGSKEGMEAVLDNFNEFFEINYG”, the “soluble fraction (log2)” value rises from -1.5 to -0.136.

First: HMASSRPLAEGDFVRLRAGGATGRIESIKGQKATVQMGGLKVHAPLRDLLPVAEPIKQVSTASNT
Second: HMASVAKHIRRLRTERHMTQGDLAEKLFVTRQTVSAWETGKAQPDLETLERIAVVLGVEVTELIYGAP
The “soluble fraction (log2)” value of the first is higher: 0.203 for the first, -0.537 for the second.

Going from “HMASVVEQVQVSNDISLFRQQNSPYWQARFKVAGKWYTRTTKRTEQTQAAFRAAELRSEVQTKISQGIPLR” to “HMATESYYVLKADVPAKTLVTQEMVEEIKVSKGGAPVNSIKIDNIKEKGVYTSIPLLKGDVLSASNTG”, the “soluble fraction (log2)” value falls from -0.00738 to -0.358.

Going from “HMATKVSSGATVRDVADLLGLSSAELIKKLMMMGEMATLTQTLTDESIKSIADEYDRKIEIVSAAE” to “HMATNVLEISTRNKNILIQDSLNLVESFYSKSDNQYWYKLVFKTKDDLNKFLQEVSEDENTITYKTSSI”, the “soluble fraction (log2)” value rises from -1.22 to -0.194.

Compared with “HMATPEINNLGRLRNAINQSNVNWHQIIKRLQNEYPNNWRQILIAIDRHDLLFRYDVENYIKYG”, “HMATPIAGTKYTLNNTPVYGTEKGPSIGKRSGIYYTWDATVRNGRIRMTNSPARVGVPWQVSFWVEVNKL” is higher in “soluble fraction (log2)” value: -0.855 for the first, -0.195 for the second.

Compared with “HMATPRLAIVPQSAAGRRLDAVLAELFPEYSRSRLSAWIKTGDVMVDGAAPRGRDPVRGGEEITLTAVQ”, “HMATPTEHQLQAQARAVVEKAERLLDRASADDREDIINLIEKITDALAAEDFTAVKAPLAELSDILFYLE” is lower in “soluble fraction (log2)” value: 0.113 for the first, -0.27 for the second.

“HMATPTMEDYIEVIYSLVKTKGYARSADIAEKLEVYPSTVTKMLKKLDAEGYIVYEKYRGIALTDIGKKMG” and “HMATSNGEFVIPDGGLQFEELERSLLMQALKKSGGSQTGAARLLGLSRDTLRYRLEKFGIDAAAVRE” are within 0.2 log units of each other in “soluble fraction (log2)” value: -0.189 for the first, -0.149 for the second.

“HMATVTVPNLKGMTPSGAESALAELNLKGAVGDSVESNDVENGKVASQDQAAGSDAKEGDTITYHLSS” and “HMATYETEVISGVNLRSAPNTSASVYRLLSKGEDIHVIQKVNDYWLKVQTKDGKIGYISASSKYTNYIA” are within 0.2 log units of each other in “soluble fraction (log2)” value: -0.103 for the first, -0.132 for the second.

“HMAVEETFTITWLDRDGTVLEVDENVLKGTMPSFDGHIPPHDGLEFKGWDPEVVPVEGDATYTATYKA” and “HMAVENTGLSKRELEILQMMARGMSNQEIGDALFISLSTVKTHVASIFSKLQAVRRTQAVGIAKSLKII” are within 0.2 log units of each other in “soluble fraction (log2)” value: -0.454 for the first, -0.367 for the second.

Compared with “HMAVFSKKQIFDTAFALFESKGLEAITARNLGKALSSSPAPIYAHYSSITELKNELISVAKDR”, “HMAVGDMISKLRTAANMSQEQFAELFGVTRQSVQKWENSFSVPELEKLIKISKYFDVSLDALVLRSDARVT” is lower in “soluble fraction (log2)” value: -0.692 for the first, -1.32 for the second.

First: HMAVLFFVKRGERILGPTRLADLFQHAASGRLRANDLVGESPKGPWLPARQLDELEDAWASSRDATEAAAA
Second: HMAVNQEFKNTINRIKYEYSLNQSQIADRLGVKKTYLSDMINGRVPYNETMNKKVNDVFPLPP
The “soluble fraction (log2)” value of the first is lower: -0.0753 for the first, no less than 0.43 for the second.

First: HMAVPTHVEFPVVGLQRSGITSLEQAIATVPGVSKAVVNVSDNRIFVDYDPTRSKVSDLLEVVRGAGFTP
Second: HMAVQAESDIIKRAALLRNLGNTSMQLKNIDQAIDFYKQGIKLHPEDAELKYNLSQALRQKSQSNN
The “soluble fraction (log2)” value of the first is lower: -0.222 for the first, 0.186 for the second.

First: HMAVQEDAGLAREDLPPEVQGLLQEREAARAAKDWGKSDALRRQLQDLGYAIKDTAQGMEIKRT
Second: HMAVRNTKQKQLVLSLLKNSGRPMTAGEIYRLAVQQYPNIAKSTVYRNLENLVSRGEVSQGMHQNGESFYS
The “soluble fraction (log2)” value of the first is lower: 0.101 for the first, no less than 0.43 for the second.

First: HMAVSPEEQKKRIIELFRNRNEVSFKEIFDLPTKGHFVITLLAVLDLARQQIVIMEQLENEGIIKFTKGA
Second: HMAVSSHAVKQRIRSLIQAEDPAAPLSDEALRLALSALGVDVSRRVIAKYRAELNIPSSSQRKK
The “soluble fraction (log2)” value of the first is lower: -0.232 for the first, 0.213 for the second.

“HMAVSVPDVMGLTYEEAYNKITAEGLLVNRLESYTGLVEKGRVISQLPVGGEPAAKGSTVNVNVSL” and “HMAVTFPYTAYATDAVRLRERPSSSADVLAVIRKGDAVLVTGTDGNYAIVDYEGKRGYVVSSFIAT” are within 0.2 log units of each other in “soluble fraction (log2)” value: -0.139 for the first, -0.159 for the second.

First: HMAVWRIKVNYIPGYGVNIWSSYKNGHFTGKRAMHGETYEVLETKKDQDGNTWYKLDDHQWIEGRYAINAK
Second: HMAYMETIERVEALAPGTKFNLKALFGTDWTQSRGTKLTLGKTFYEMVESGYVKTAKVLGKDSSNIMQYER
The “soluble fraction (log2)” value of the first is lower: -0.88 for the first, -0.0837 for the second.

Going from “HMAYSEEERNLIRSRLKDVAAALFKEKGIRDTNIDEIYTPVGISKTFFYSFFPSKAVLAIAIMK” to “HMAYVDWYENKQPTHEEAFKKLLGRIHPGAIVLLHSTSKTNGEILDELLTKWEEMGYRFGTLDELTGN”, the “soluble fraction (log2)” value falls from -0.267 to -1.14.

“HMDAATDAIKAEVRALLEMANAQGIDTESIMLEAHEQTRNATEQDYYEAAKSALEAAIAGSNRDR” and “HMDADGEPIKLDQIGISHLSFTVADVKSLGEELVAKGVKLAAPMEAFTSPEGRISSIFVYDPDGILLQFDD” are within 0.2 log units of each other in “soluble fraction (log2)” value: -0.319 for the first, -0.123 for the second.

Compared with “HMDADRLSPREREMLQFIARGQSNKEIARALELAESTVKIHVQNMLRKLNLSSRVQAAVFAVENGLG”, “HMDAGLAEIIRSFEDNLGGFPPAAREDLLGWREIFTDDLILLAIKKAALAGVRKWSYVNGILKVWKNEGVR” is lower in “soluble fraction (log2)” value: 0.302 for the first, -1.09 for the second.

“HMDAHYMEMKGKTGTAFTMLRPAGKIDIEGQIFDAVAEAGFIEKGEAIRVVKYENAQLIVRK” and “HMDAIAYLGSRLKEIRLKSGLSLREIARQLDVSPSFISQIENGKSQPSVATLYAFAKLLNVPVDVLFQPS” are within 0.2 log units of each other in “soluble fraction (log2)” value: -0.32 for the first, -0.455 for the second.

First: HMDAKNNPQVMAQIRAILTAKGLSEDEVKTRLKTKNIDVDKMTDQEIIAQRPAIEAIINEMEQEKKQKMG
Second: HMDALPLIQLEKEIKDFISQGQKINAIKHYRNVMDRDFGTTISLKLAKYTVDALAQNIKVDLTKGYDQ
The “soluble fraction (log2)” value of the first is higher: 0.142 for the first, -0.852 for the second.

First: HMDALTLSIDAQGALYWNGQPVSRELAAQRFVEAAAQRPQPELHLRADQNVAYRHVAMTLADASRAGLTR
Second: HMDANAYTYKVSEDTDTRTGEKIFLVKVAEKLSRKEYIVVNNYMKSLGSYYSKFKHAFLFKENPTEKL
The “soluble fraction (log2)” value of the first is lower: -0.632 for the first, -0.246 for the second.

Going from “HMDANLGEIFKVYEQEIGALTPFVREEMLDAIDHYPRDWILDAIRESAKSNARNWKYTLAILKRWKAEG” to “HMDAPIIRLLNSLVQRAVTTTASDIHIEPFEGETKVRMRIDGVIIDYVTLQRALHQPLIARIKIMSNLD”, the “soluble fraction (log2)” value rises from -0.507 to -0.237.

Compared with “HMDAPKTGSLVVSKAVNYGSWSGFTFRLHGTSDKGNSVDVTATTGSDGKAYFKDIEIGTYTLEEVN”, “HMDAQEAAWARKMMETLPEKQKLSVALRIEEGLSFKEIGEIIGSSEGAARVNYFHGIRRLRELL” is higher in “soluble fraction (log2)” value: -1.19 for the first, -0.768 for the second.
